Experimental findings from patent US20180185450A1 (Sanofi, published 2018) are described below.

Numbered stars: 1 amine (or outer) side, 2 acyl side, 3 side chain; on linkers, the order of the positions; unused ones are H or OH. Square brackets hold non-standard residues; d marks the D form. Side chains are listed from the residue outwards. Ends that are not written are not given here. γGlu = O=C(O)[C@H](CCC(=O)[*:2])N[*:1]; x53 = not defined here; Aib = CC(C)(N)C(=O)O

Assay [1] has as its target human GLP-1 receptor (human, UniProt P43220 24-463). Put plainly: cell-based or functional assay.
Assay [2] deals with human glucagon receptor (human, UniProt P47871 26-477). Put plainly: cell-based or functional assay.
human glucagon receptor, sequence (P47871 26-477): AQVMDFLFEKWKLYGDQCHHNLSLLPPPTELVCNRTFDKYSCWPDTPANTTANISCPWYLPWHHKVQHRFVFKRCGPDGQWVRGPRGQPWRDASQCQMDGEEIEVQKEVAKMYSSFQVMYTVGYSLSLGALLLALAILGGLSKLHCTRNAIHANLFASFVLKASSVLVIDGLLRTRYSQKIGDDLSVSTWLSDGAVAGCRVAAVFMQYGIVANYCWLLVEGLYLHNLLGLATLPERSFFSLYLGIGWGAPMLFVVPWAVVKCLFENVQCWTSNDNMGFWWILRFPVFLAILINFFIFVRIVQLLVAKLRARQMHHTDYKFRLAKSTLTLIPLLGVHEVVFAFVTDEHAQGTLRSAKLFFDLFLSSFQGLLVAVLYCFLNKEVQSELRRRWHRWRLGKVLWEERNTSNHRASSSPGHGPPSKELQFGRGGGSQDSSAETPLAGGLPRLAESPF

With HXQGTFTSDLSKQKESRAAQDFIEWLKAGGPSSGAPPPS (dSer at 2; K(γE-x70) at 14; C-terminal NH2) [SEQ ID NO: 51], the “EC50 hGLP-1R (cAMP)” value in assay [1] was 2.7 pM. The “EC50 hGlucagon-R (cAMP)” value in assay [2] worked out at 3 pM.
With HXQGTFTSDLSKQKDSRRAQDFIEWLKNGGPSSGAPPPS (dSer at 2; K(γE-x69) at 14; C-terminal NH2) [SEQ ID NO: 90], in assay [1], the “EC50 hGLP-1R (cAMP)” value worked out at 8.8 pM. Further, the “EC50 hGlucagon-R (cAMP)” value in assay [2] came to 3.7 pM.
HXQGTFTSDLSKQKESRAAQDFIEWLKAGGPSSGAPPPS (dSer at 2; K(γE-x74) at 14; C-terminal NH2) [SEQ ID NO: 55]: in assay [1], the “EC50 hGLP-1R (cAMP)” value was determined as 5.4 pM. For the same molecule, the “EC50 hGlucagon-R (cAMP)” value in assay [2] was determined as 15.8 pM.
For HXQGTFTSDLSKQXESRRAQDFIEWLKAGGPSSGAPPPS (dSer at 2; Orn(γE-x53) at 14; C-terminal NH2) [SEQ ID NO: 71], the “EC50 hGLP-1R (cAMP)” value in assay [1] amounted to 20.5 pM. Moreover, in assay [2], the “EC50 hGlucagon-R (cAMP)” value stood at 5.6 pM.
The matching figures for HXQGTFTSDLSKQKESRAAQDFIEWLKAGGPSSGAPPPS (dSer at 2; K(γE-x79) at 14; C-terminal NH2) [SEQ ID NO: 61]: 5.3 pM and 16 pM.
Turning to HXQGTFTSDLSKQKDSRRAQDFIEWLKNGGPSSGAPPPS (dSer at 2; K(γE-x60) at 14; C-terminal NH2) [SEQ ID NO: 89], in assay [1], the “EC50 hGLP-1R (cAMP)” value came to 35.6 pM. Also, in assay [2], the “EC50 hGlucagon-R (cAMP)” value stood at 13.7 pM.
The matching figures for HXQGTFTSDLSKQKESRAAQDFIEWLKAGGPSSGAPPPS (dSer at 2; K(γE-x75) at 14; C-terminal NH2) [SEQ ID NO: 9]: 2.2 pM and 4.1 pM.
For HXQGTFTSDLSKQKESRAAQDFIEWLKAGGPSSGAPPPS (dSer at 2; K(γE-x77) at 14; C-terminal NH2) [SEQ ID NO: 60], the “EC50 hGLP-1R (cAMP)” value in assay [1] came out at 38.4 pM. The “EC50 hGlucagon-R (cAMP)” value in assay [2] was 19.3 pM.
HXQGTFTSDLSKQKESRRAQLFIEWLKAGGPSSGAPPPS (dSer at 2; K(x53) at 14; C-terminal NH2) [SEQ ID NO: 69]: in assay [1], the “EC50 hGLP-1R (cAMP)” value was determined as 44.8 pM. Also, the “EC50 hGlucagon-R (cAMP)” value in assay [2] was found to be 52.4 pM.
With HXQGTFTSDLSKQKEKRRAQDFIEWLKNGGPSSGAPPPS (dSer at 2; K(γE-x53) at 14; C-terminal NH2) [SEQ ID NO: 88], the “EC50 hGLP-1R (cAMP)” value in assay [1] is 2.4 pM. Moreover, the “EC50 hGlucagon-R (cAMP)” value in assay [2] amounted to 1.6 pM.
The like results for HXQGTFTSDLSKQXESRRAQDFIEWLKAGGPSSGAPPPS (dSer at 2; Dab(γE-x53) at 14; C-terminal NH2) [SEQ ID NO: 72] were, in that order, 25.9 pM and 386 pM.
As for HXQGTFTSDLSKQKESRRAQDFIEWLKEGGPSSGRPPPS (dSer at 2; K(x53) at 14; C-terminal NH2) [SEQ ID NO: 83], the “EC50 hGLP-1R (cAMP)” value in assay [1] is 53.9 pM. Further, the “EC50 hGlucagon-R (cAMP)” value in assay [2] stood at 41.3 pM.
The like results for HXQGTFTSDLSKQKESRAAQDFIEWLKAGGPSSGAPPPS (dSer at 2; K(γE-x82) at 14; C-terminal NH2) [SEQ ID NO: 64] were, in that order, 3.1 pM and 6.9 pM.
The matching figures for HXQGTFTSDLSKQKESRAAQLFIEWLKAGGPSSGAPPPS (dSer at 2; K(γE-x53) at 14; C-terminal NH2) [SEQ ID NO: 70]: 6.5 pM and 40.9 pM.
The matching figures for HXQGTFTSDLSKQKDSRRAXDFIEWLKAGGPSSGAPPPS (dSer at 2; K(γE-x53) at 14; Aib at 20; C-terminal NH2) [SEQ ID NO: 67]: 15.7 pM and 3 pM.
HXQGTFTSDLSKQKDSRRAQDFIEWLKNGGPSSGAPPPS (dSer at 2; K(γE-x70) at 14; C-terminal NH2) [SEQ ID NO: 8]: in assay [1], the “EC50 hGLP-1R (cAMP)” value is 6.3 pM. Moreover, the “EC50 hGlucagon-R (cAMP)” value in assay [2] worked out at 2.3 pM.
As for HXQGTFTSDLSKQKESRAAQDFIEWLKAGGPSSGAPPPS (dSer at 2; K(γE-x60) at 14; C-terminal NH2) [SEQ ID NO: 57], the “EC50 hGLP-1R (cAMP)” value in assay [1] was 45 pM. For the same molecule, the “EC50 hGlucagon-R (cAMP)” value in assay [2] was found to be 8 pM.
Turning to HXQGTFTSDLSKQKESRRAQDFIEWLKKGGPSSGAPPPS (dSer at 2; K(γE-x53) at 14; C-terminal NH2) [SEQ ID NO: 85], the “EC50 hGLP-1R (cAMP)” value in assay [1] worked out at 8.1 pM. The “EC50 hGlucagon-R (cAMP)” value in assay [2] came out at 10.4 pM.
The matching figures for HXQGTFTSDLSKQKDSRRAQDFIEWLKNGGPSSGAPPPS (dSer at 2; K(γE-x53) at 14; C-terminal NH(n-Propyl)) [SEQ ID NO: 10]: 9.2 pM and 1.7 pM.
The like results for HXQGTFTSDLSKQKESRAAQDFIEWLKAGGPSSGAPPPS (dSer at 2; K(GABA-x74) at 14; C-terminal NH2) [SEQ ID NO: 56] were, in that order, 4.5 pM and 29.3 pM.
The matching figures for HXQGTFTSDLSKQKDSRRAQDFIEWLKDGGPSSGAPPPS (dSer at 2; K(γE-x53) at 14; C-terminal NH2) [SEQ ID NO: 80]: 5.8 pM and 1 pM.
Regarding HXQGTFTSDLSKQKESRAAQDFIEWLKAGGPSSGAPPPS (dSer at 2; K(γE-x80) at 14; C-terminal NH2) [SEQ ID NO: 62], in assay [1], the “EC50 hGLP-1R (cAMP)” value was determined as 3.9 pM. Besides, the “EC50 hGlucagon-R (cAMP)” value in assay [2] came to 10.6 pM.
The matching figures for HXQGTFTSDLSKQKESRAAQDFIEWLKAGGPSSGAPPPS (dSer at 2; K(γE-x70) at 14; C-terminal NH2) [SEQ ID NO: 65]: 5 pM and 5.6 pM.
With HXQGTFTSDLSKQKESRAAQDFIEWLKAGGPSSGAPPPS (dSer at 2; K(GABA-x60) at 14; C-terminal NH2) [SEQ ID NO: 58], in assay [1], the “EC50 hGLP-1R (cAMP)” value stood at 45.6 pM. In addition, the “EC50 hGlucagon-R (cAMP)” value in assay [2] was determined as 15.1 pM.
The matching figures for HXQGTFTSDLSKQKESKAAQDFIEWLKAGGPSSGAPPPS (dSer at 2; K(GABA-x53) at 14; C-terminal NH2) [SEQ ID NO: 7]: 3.5 pM and 20.7 pM.
The matching figures for HXQGTFTSDLSKQKESRRAQDFIEWLKEGGPSSGRPPPS (dSer at 2; K(γE-x53) at 14; C-terminal NH2) [SEQ ID NO: 82]: 11.7 pM and 4.7 pM.
The matching figures for HXQGTFTSDLSKQKESRAAQDFIEWLKAGGPSSGAPPPS (dSer at 2; K(γE-x81) at 14; C-terminal NH2) [SEQ ID NO: 63]: 4.9 pM and 8.4 pM.
Regarding HXQGTFTSDLSKQKESRRAQDFIEWLKXGGPSSGAPPPS (dSer at 2; K(γE-x53) at 14; Aib at 28; C-terminal NH2) [SEQ ID NO: 79], the “EC50 hGLP-1R (cAMP)” value in assay [1] was 23.3 pM. Besides, the “EC50 hGlucagon-R (cAMP)” value in assay [2] amounted to 7.5 pM.
The matching figures for HXQGTFTSDLSKQKESRAAQDFIEWLKAGGPSSGAPPPS (dSer at 2; K(βA-βA-x70) at 14; C-terminal NH2) [SEQ ID NO: 54]: 4.8 pM and 4 pM.
The like results for HXQGTFTSDLSKQKESRRAXDFIEWLKAGGPSSGAPPPS (dSer at 2; K(x53) at 14; Aib at 20; C-terminal NH2) [SEQ ID NO: 76] were, in that order, 44.9 pM and 162 pM.
Consider HXHGTFTSDLSKQKESRRAQDFIEWLKAGGPSSGAPPPS (dSer at 2; K(γE-x53) at 14; C-terminal NH2) [SEQ ID NO: 73], for which, in assay [1], the “EC50 hGLP-1R (cAMP)” value came out at 4.1 pM. Also, in assay [2], the “EC50 hGlucagon-R (cAMP)” value turned out to be 1.7 pM.
In the case of HXQGTFTSDLSKQKESRAAQDFIEWLKAGGPSSGAPPPS (dSer at 2; K(γE-γE-x70) at 14; C-terminal NH2) [SEQ ID NO: 52], in assay [1], the “EC50 hGLP-1R (cAMP)” value came to 1.9 pM. Further, in assay [2], the “EC50 hGlucagon-R (cAMP)” value worked out at 2 pM.
The matching figures for HXQGTFTSDLSKQKDSRRAQDFIEWLKDGGPSSGAPPPS (dSer at 2; K(x53) at 14; C-terminal NH2) [SEQ ID NO: 81]: 48 pM and 7.1 pM.
As to HXQGTFTSDLSKQKESRRAQLFIEWLKAGGPSSGAPPPS (dSer at 2; K(γE-x53) at 14; C-terminal NH2) [SEQ ID NO: 68], the “EC50 hGLP-1R (cAMP)” value in assay [1] was determined as 7.9 pM. The “EC50 hGlucagon-R (cAMP)” value in assay [2] worked out at 5.7 pM.
The matching figures for HXQGTFTSDLSKQKESRAAQDFIEWLKAGGPSSGAPPPS (dSer at 2; K(GABA-x70) at 14; C-terminal NH2) [SEQ ID NO: 53]: 5.4 pM and 6.5 pM.
The like results for HXQGTFTSDLSKQKESRAAQDFIEWLKAGGPSSGAPPPS (dSer at 2; K(x53) at 14; C-terminal NH2) [SEQ ID NO: 66] were, in that order, 8.4 pM and 113 pM.
The matching figures for HXQGTFTSDLSKQKESRAAQDFIEWLKAGGPSSGAPPPS (dSer at 2; K(γE-x76) at 14; C-terminal NH2) [SEQ ID NO: 59]: 7.9 pM and 6.8 pM.
Consider HXQGTFTSDLSKQKDSQAAQDFIEWLKNTGPSSGAPPPS (dSer at 2; K(γE-x53) at 14; C-terminal NH2) [SEQ ID NO: 86], for which the “EC50 hGLP-1R (cAMP)” value in assay [1] was 4.9 pM. Besides, the “EC50 hGlucagon-R (cAMP)” value in assay [2] was found to be 3.5 pM.
As to HXQGTFTSDLSKQKDERRAKDFIEWLKNGGPSSGAPPPS (dSer at 2; K(γE-x53) at 14; C-terminal NH2) [SEQ ID NO: 87], the “EC50 hGLP-1R (cAMP)” value in assay [1] is 3 pM. For the same molecule, the “EC50 hGlucagon-R (cAMP)” value in assay [2] is 1.3 pM.
The like results for HXQGTFTSDLSKQKESRRAQLFIEWLKAGGPSSGAPPPSK (dSer at 2; K(γE-x53) at 14; K(γE-x53) at 40; C-terminal NH2) [SEQ ID NO: 6] were, in that order, 141 pM and 18.9 pM.
For the molecule HAEGTFTSDVSSYLEGQAAKEIAWLVKGR-NH2 [GLP-1(7-36)-amide], the “EC50 hGLP-1R (cAMP)” value in assay [1] stood at 0.7 pM.
Consider H[Aib]QGTFTSDLSKQK([γGlu-x53])ESRRAQDFIEWLKAGGPSSGAPPPS-NH2 (reading uncertain) [SEQ ID NO: 77], for which, in assay [1], the “EC50 hGLP-1R (cAMP)” value worked out at 4.3 pM. In addition, the “EC50 hGlucagon-R (cAMP)” value in assay [2] is 11.9 pM.
